Test results: US20160228506A1, “Compositions and Formulations for Prevention and Reduction of Tumorigenesis, Cancer Cell Proliferation and Invasion, and Methods of Production and Use Thereof in Cancer Treatment” (PRONUTRIA, INC., priority 2013, published 2016)

B1: SEQID-00220: nutritive polypeptide (protein, listed as Bos taurus)
chain: DTKKKVDDDLGTIENLEEAKKKLLKDVEVLSQRLEEKALAYDKLEKTKTRLQQELDDLLVDLDHQ
B2: SEQID-00287: nutritive polypeptide (protein, listed as Saccharomyces cerevisiae)
chain: LVLGALLDTSHKFRNLDKDLCEKCAKCISMIGVLDVTKHEFKRTTYSENEVYDLNDSVQTIKFLIWVINDILV
modifications: source: /note="strain ATCC 204508 / S288c"
notes: nutritive polypeptide
B3: SEQID-00100: nutritive polypeptide (protein, listed as Lactobacillus acidophilus)
chain: MSEEEIFNKIKDLIADNFEVDKDSITENTNFMNDLDADSIDLVEFILQLEDEFGAEIPDDEAEKIKTVGDAVSYIKSHQG
B4: SEQID-00102: nutritive polypeptide (protein, listed as Lactobacillus johnsonii)
chain: MTEEEIFNKIADMISERFSIDRDKITKDLNFQNDLDADSIDFVELVMDLEDTFGAEIPDDDAEKLQTVGEAVEYIKSHQN
B5: SEQID-00099: nutritive polypeptide (protein, listed as Thermosynechococcus elongatus)
chain: MNQSEILEKVKAIVADQLSVDPEKVVPEASFAEDLNADSLDSVELIMALEEEFGVEIPDEEAEKLKTVQDVLDFINNKVAA
B6: SEQID-00606: protein of the 168 nutritive polypeptide library (protein)
chain: MASEGDHHHHHHHHQDHDHHHHDHDHHHHHDGEGETNSWVGKDGKVYHSHDGLAPHSHEPIYSPGYFTRRAPPLLNRNFNERAFTVGIGGPVGTGKTALMLALCELLRENYSLAAVTNDIFTKEDGEFLVKHKALPEERIRAVETGGCPHAAIREDISINLGPLEELSNLFKADILLCESGGDNLAANFSRELADYIIYIIDVSGGDKIPRKGGPGITQADLLVINKTDLAPAIGADLAVMQRDALRMRDGGPFVFAQVKHKIGVEEIGNLVLQAWEAATGNKRH
modifications: Glycine max
notes: protein of the 168 nutritive polypeptide library
B7: SEQID-00601: protein of the 168 nutritive polypeptide library (protein, listed as Agaricus bisporus)
chain: MTRSWEPGTQYNLGDVVEYNGDEYKIIQAHSSQSDWAPDRTPALWGKLPHRHHQQGQYQQQQECQPQQPQKTCYDYGKQEQAPQHSDSKEKKNWFGNITESQKQALEVGGGVALGAGLLGGAFAAWKHHQHKEEAHDSFEAWANAARSRAEEFRAKGPQGPATWVYNEGKHIPEQAILVGTEHNWNLYICRAYCDGGVQIGKASDVFKKGAVIGYKEDEHHLDKYEILLGDMRGLKWVQTGNSLDLASLGATPVEGGYENDHTRLYIARAFHKGAKHPGKVSERLDGAYIPYDGKEKCVKEYEVLCYL
modifications: source: /note="var. bisporus"; source: /note="strain H97 / ATCC MYA-4626 / FGSC 10389"
notes: as for B6
B8: SEQID-00241: nutritive polypeptide (protein, listed as Bos taurus)
chain: SELKKDIDDLELTLAKVEKEKHATENKVKNLTEEMAGLDETIAKLTKEKKALQEAHQQTLDDLQAEEDKVNTLTKAKTKLEQQVDDLEGSLEQEKKLRMDLERAKRKLEGDLKLA
B9: SEQID-00302: nutritive polypeptide (protein)
chain: MAKKTVANLSASELSGKKVLVRADFNVPLDNGSISDDTRIRAALPTIQDLTSKGAKVILSSHFGRPQGQVVESMRLTPVAARLSELLGKTVKKCDDCIGEEVAVAVGAMSDGDVLLLENVRFHAAEEKNDPEFAKQLASVADLYVNDAFGTAHRAHASTEGVTKYLSPCVAGYLIEKELQFLQGAIESPQRPLAAIIGGSKVSSKIGVIEALLDKCDKLLLGGGMIFTFYKARGLSVGNSLVEEDKLELAKSLEAKAKEKGVTMLLPTDVVLADKFAADADSQTVSVEAIPDGWMGLDIGPDSVKVFQEALGDCKTVLWNGPMGVFEFEKFAAGTRAIAQTLAELTSTGTTTIIGGGDSVAAVEQLNLGEKMSHISTGGGASLELLEGKQLPGIVALDDA
modifications: Arthrospira platensis C1
notes: nutritive polypeptide
B10: SEQID-00610: protein of the 168 nutritive polypeptide library (protein, listed as Saccharomyces cerevisiae)
chain: MVLEATVLVIDNSEYSRNGDFPRTRFEAQIDSVEFIFQAKRNSNPENTVGLISGAGANPRVLSTFTAEFGKILAGLHDTQIEGKLHMATALQIAQLTLKHRQNKVQHQRIVAFVCSPISDSRDELIRLAKTLKKNNVAVDIINFGEIEQNTELLDEFIAAVNNPQEETSHLLTVTPGPRLLYENIASSPIILEEGSSGMGAFGGSGGDSDANGTFMDFGVDPSMDPELAMALRLSMEEEQQRQERLRQQQQQQDQPEQSEQPEQHQDK
modifications: source: /note="strain ATCC 204508 / S288c"
notes: as for B6
B11: SEQID-00226: nutritive polypeptide (protein, listed as Bos taurus)
chain: QLQALQAQLTDTKKKVDDDLGTIENLEEAKKKLLKDVEVLSQRLEEKALAYDKLEKTKTRLQQELDDLLVDLDHQRQIVSNLEKKQKKFDQLLAEEKNIS
B12: SEQID-00305: nutritive polypeptide (protein, listed as Bos taurus)
chain: MPHQYPALTPEQKKELCDIAHRIVAPGKGILAADESTGSIAKRLQSIGTENTEENRRFYRQLLLTADDRVNPCIGGVILFHETLYQKADDGRPFPQVIKAKGGVVGIKVDKGVVPLAGTNGETTTQGLDGLSERCAQYKKDGADFAKWRCVLKIGEHTPSSLAIMENANVLARYASICQQNGIVPIVEPEILPDGDHDLKRCQYVTEKVLAAVYKALSDHHIYLEGTLLKPNMVTPGHACTQKYSHEEIAMATVTALRRTVPPAVPGITFLSGGQSEEEASINLNAINKCPLLKPWALTFSYGRALQASALKAWGGKKENLKAAQEEYVKRALANSLACQGKYTPSGKAGAAASESLFISNHAY

What was measured:
[1] = Intact half-life during simulated gastric fluid (SGF) digestion; settings: for SGF Half-life (t½): SGF pH 1.5, pepsin:polypeptide 1:20 w/w, 37° C., intact protein; for Half-life: purified proteins, chip electrophoresis
[2] = Thermostability, temperature of aggregation (ProteoStat Thermal Shift); assay type: physicochemical; design: key to Tagg: temperature in °C; settings: for Tagg (pH 7.1): Table E31D, heated 25° C. to 95° C.
Method: The thermostability of proteins in a buffer cocktail of Citric Acid and Dibasic Sodium Phosphate over a pH range of 2.8 to 7.1 (preparation described above in Table E31B) was determined using the ProteoStat® Thermal Shift Stability Kit (Enzo Life Sciences) according to the manufacturer's standard protocol. Briefly, protein solutions (˜10 mg/ml) containing 1× ProteoStat TS Detection Reagent were heated from 25° C. to 95° C. at a rate of 0.5° C. per 30 sec using a real-time PCR (rtPCR) thermocycler (BioRad) equipped with a plate reader (SynergyMx, Biotek) while monitoring the fluorescence with a Texas Red filter.

pH solubility = assay type: physicochemical; settings: for pH Range where Protein is >80% detected as Soluble and A650 <1 OD: Low: lower pH; for pH Range where Protein is >80% detected as Soluble and A650 <1 OD: High: upper pH
Method: pH Solubility. […] Protein was either lyophilized and then resuspended in buffer cocktail mixtures, or concentrated and then spiked into buffer cocktail mixtures at a final protein concentration of 5 to 30 mg/ml. As a control, protein was also dissolved in a solution of 8 M urea. Protein solutions were shaken for 10 min at room temperature. Turbidity of proteins was determined by measuring the absorbance of protein solutions at 650 nm. The protein solution was then centrifuged for 10 min at 1100×g to pellet undissolved or precipitated protein. The soluble protein fraction (supernatant) was sampled and protein concentration was measured by one or more of the following methods: Coomassie Plus Protein Assay (Pierce), Chip electrophoresis, gel electrophoresis, and/or absorbance at 280 nm. The pH range over which select proteins remained greater than 80% soluble as determined by Bradford and the A650 value are listed in Table E31C.

[3] = SGF digest of 168 nutritive polypeptide library, intact protein by LC-MS/MS; assay type: in vitro ADME; settings: for % Intact Protein at 10 min: 168 nutritive polypeptide library SGF digest, LC-MS/MS spectral counts; for % Remaining at 10 min: 168 nutritive polypeptide library, LC-MS/MS
Summary of the method: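 Spectral-count ratios (10 min vs 0 min, peak gel fraction plus neighbours) give the percent of each protein left intact after SGF digestion of a pooled, IMAC-purified 168-member recombinant library. Samples were gel-fractionated, trypsinised in-gel and run on Orbitrap nanoLC-MS/MS, requiring two unique peptides at 1% FDR.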

| Molecule | SGF Half-life (t½) [1] [s] | Tagg (pH 7.1) [2] | pH Range where Protein is >80% detected as Soluble and A650 <1 OD: Low (pH solubility) | pH Range where Protein is >80% detected as Soluble and A650 <1 OD: High (pH solubility) | other results |
| --- | --- | --- | --- | --- | --- |
| B1 | 30 | >95 | – | – | – |
| B2 | 180 | – | 6.2 | 9.1 | pH Range where Protein is >80% detected as Soluble and A650 <1 OD: Other (pH solubility; other pH): 2.6 |
| B3 | 120 | – | 4.3 | 7.1 | Tagg ([2]; pH 2.8): 95; Tagg ([2]; pH 3.7): 95; Tagg ([2]; pH 3.9): 95; Tagg ([2]; pH 4.3): 83^; Tagg ([2]; pH 4.6): 84^; Tagg ([2]; pH 5.0): 95; Tagg ([2]; pH 5.6): 95; Tagg ([2]; pH 6.0): 95; Tagg ([2]; pH 6.5): 95; Tagg ([2]; pH 7.1): >95 |
| B4 | 36 | >95 | – | – | – |
| B5 | 60 | 64 | – | – | – |
| B6 | 18 | 95 | – | – | Half-life [1]: 18 s; % Intact Protein at 10 min [3]: 0%; % Remaining at 10 min [3]: 0% |
| B7 | 12 | – | – | – | Half-life [1]: 12 s; % Intact Protein at 10 min [3]: 1.1%; % Remaining at 10 min [3]: 1.1%; Tagg ([2]; pH 2.8): 95; Tagg ([2]; pH 3.7): 95; Tagg ([2]; pH 4.3): 95^; Tagg ([2]; pH 6.5): 45.5; Tagg ([2]; pH 7.1): 48.5 |
| B8 | 18 | >95 | 4.3 | 9.1 | – |
| B9 | 12 | 46 | – | – | – |
| B10 | 24 | 54.5 | – | – | Half-life [1]: 24 s; % Intact Protein at 10 min [3]: 3.3%; % Remaining at 10 min [3]: 3.3% |
| B11 | 42 | >95 | 2.6 | 9.1 | – |
| B12 | 12 | 48 | – | – | – |
